According to patent US20130028888A1 (AERES BIOMEDICAL, published 2013):
Changes are numbered by the printed parent chain. Each block holds one binder with its values, some of them ahead of it.

Columns and labels:
[1] = molecular target: T1, human CD22 expressed on the cell surface (human, UniProt P20273 20-847); test: cell ELISA on BHK cells expressing human CD22, OD 655 nm
T1 construct: whole, on cells; One entry covers all cell-surface formats (BHK-CD22, CHO, COS, Daudi, human B cells); also called hCD22; BHK-CD22

[2] = molecular target: T1, human CD22 expressed on the cell surface; test: cell ELISA on BHK cells expressing human CD22, COS-7 supernatant, OD 655 nm
[3] = molecular target: T1, human CD22 expressed on the cell surface; test: BHK-CD22 cell ELISA
[4] = molecular target: T1, human CD22 expressed on the cell surface; test: cell ELISA on BHK cells expressing human CD22, goat anti-mouse Ig-HRP, OD 450 nm
Source text: The BHK-CD22 binding assay was used to test the binding activity of the chHB227 antibody in the transiently transformed COS 7 culture supernatants. A goat anti-human Ig-HRP conjugate (Sigma Chemicals) was used to detect binding of chHB22.7 mAb while a goat anti-mouse Ig-HRP conjugate (Southern Biotechnology) was used to detect binding of the parental mouse HB22.7 mAb. The bound HRP conjugates were exposed to the substrate o-phenyldiamine (OPD) and the resulting products detected at 450 nm.

EC50 (read off the curve) [4]: ~0.08 µg/mL
B3: parental mouse monoclonal anti-CD22 antibody HB22.7 (antibody, V domains shown)
VH: QVQLKESGPGLVAPSQSLSITCTVSGFSLSDYGVNWVRQIPGKGLEWLGIIWGDGRTDYNSALKSRLNISKDNSKSQVFLKMNSLKADDTARYYCARAPGNRAMEYWGQGTSVTVS
VL: SIVMTQTPKFLLVSAGDRITLTCKASQSVTNDVAWYQQKPGQSPKLLIYYASNRYTGVPDRFTGSGYGTDFTFTISTVQAEDLAVYFCQQDYRSPWTFGGGTKLEI
notes: Mouse hybridoma antibody (ATCC HB11347); Labelled with Alexa-fluor 488 or 647 in some cell assays; also called murine HB22.7; mouse HB22.7

EC50 (read off the curve) [2]: ~0.1 µg/mL
B4: HB227RHF heavy chain + chimeric HB22.7 light chain (chL) (antibody, human IgG1, V domains shown)
VH: QVQLQESGPALVKPTQTLTLTCTVSGFSLSDYGVNWIRQPPGKALEWLGIIWGDGRTDYNSALKSRLSISKDNSKNQVVLRMTNVDPVDTATYFCARAPGNRAMEYWGQGTVVTVSS
VL: B3 VL
notes: Human IgG1/kappa constants; COS-7 supernatant; also called HB227RHF+chL; RHF+chL

The remaining lines, values behind:

B1: chimeric HB22.7 antibody chHB227 (chH + chL) (antibody, human IgG1, V domains shown)
VH: B3 VH
VL: B3 VL
notes: Mouse HB22.7 variable regions on human IgG1 and kappa constant regions (vectors pG1D20, pKN10); Transient COS-7 supernatant; also called CH+CK; fully chimeric antibody
EC50 (read off the curve) [1]: ~0.3 µg/mL
EC50 (read off the curve) [2]: ~0.1 µg/mL

B2: HB227RHC heavy chain + chimeric HB22.7 light chain (chL) (antibody, human IgG1, V domains shown)
VH: B4 VH with V24F
VL: B3 VL
notes: Human IgG1/kappa constants; COS-7 supernatant; also called RHC+chL
fold binding relative to chimeric light chain with HB227RHB [3]: ~2 fold

B5: humanized antibody HB227RHF + HB227RKC (antibody, human IgG1, V domains shown)
VH: B4 VH
VL: DIVMTQSPSSLSASVGDRVTITCKASQSVTNDVAWYQQKPGKAPKLLIYYASNRYTGVPDRFSGSGYGTDFTLTISSLQPEDFATYFCQQDYRSPWTFGGGTKVEIKR
notes: Human IgG1/kappa constants; COS-7 supernatant; also called RHF+RKC; humanized (RHF+RKC) antibody
EC50 (read off the curve) [2]: ~0.2 µg/mL
